For test [1], the target named is T1, human SIRPγ (human, UniProt Q9P1W8 29-387).
T1 construct: on transfected CHO-K1 cells; also called hSIRPγ
The test can be described thus: flow cytometry, Jurkat E6.1 cells. As for the experimental part: Binding to hSIRPγ was assessed by flow cytometry using the Jurkat E6.1 T cell leukemia cell line (ECACC 88042803). Jurkat cells were seeded in 96-well round bottomed tissue culture plates and incubated for 40 minutes with the anti-hSIRPα antibodies (20 μg/mL and dilutions thereof) in PBS/1% BSA at 4° C. […] After this labeling procedure, cells were washed two times, resuspended in PBS/1% BSA, containing 0.1 μg/mL DAPI (BioLegend), and analysed by flow cytometry on the FACSVerse (BD Biosciences). Data were processed and analysed with FlowJo V10 software (FlowJo, LLC).

In test [2] the target is T2, human SIRPα variant 1 (human, UniProt P78324 31-504).
T2 construct: full length ORF on transfected CHO-K1 or HEK293 cells; entry includes the signal peptide; also called hSIRPαV1; SIRPαV1
The experiment in a line: CELISA, CHO-K1 transfectants; average of two experiments. As for the experimental part: (§1) The binding specificity of antibody hSIRPα.50A to hSIRPα was compared antibody KWAR23 (Canadian Patent 2939293 A1), in a CELISA format. CHO-K1 cells were transiently transfected with hSIRPαV1, hSIRPαV2, hSIRPβ1, and hSIRPγ (GenBank accession: NM_018556.3) (SEQ ID NO: 39) cDNAs. Subsequently, hSIRPα binding was assessed by CELISA using CHO-K1.hSIRPαV1, CHO-K1.hSIRPαV2, CHO-K1.hSIRPβ1, and CHO-K1.hSIRPγ cells. Detection of bound antibody was performed with goat-anti-mouse IgG-HRP (Southern Biotech) for mouse antibodies including hSIRPα.50A and control antibodies or, alternatively, with goat-anti-human IgG-HRP conjugate (Jackson Immuno Research) for the KWAR23 antibody. KWAR23 (SEQ ID NO: 130; SEQ ID NO: 131) was expressed as a chimeric human IgG4 kappa antibody in CHO cells. As shown in FIG. 2 and the following Table 9, KWAR23 antibody cross-reacts with all members of the SIRP receptor family tested: it binds to hSIRPαV1, hSIRPαV2, hSIRPβ1, and hSIRPγ.

Test [3] concerns the target T3, human SIRPα variant 2 (human, UniProt P78324 31-504).
T3 construct: full length ORF on transfected CHO-K1 cells; also called hSIRPαV2; SIRPαV2
The description is as above. As for the experimental part:
as §1

In test [4] the target is T1, human SIRPγ. The test is described as above. The protocol:
as §1

For test [5], the target named is T3, human SIRPα variant 2. The test can be described thus: flow cytometry, blockade of DyLight488-hCD47/Fc binding to THP-1 cells. As for the experimental part: hCD47 blockade for the KWAR23, clone 18D5, and hSIRPα.40A antibodies was assessed by flow cytometry. For this purpose, THP-1 (ATCC TIB-202) and U-937 (ATCC CRL-1593.2) monocyte cell lines were used as the source of hSIRPα in the assay. THP-1 and U-937 cells were seeded in 96-well round bottomed tissue culture plates and incubated for 45 minutes with FcR Blocking Reagent (Miltenyi Biotec) and indicated anti-hSIRPα antibodies (20 μg/mL and dilutions thereof) in PBS/1% BSA at 4° C. […] After this labeling procedure, cells were washed two times, resuspended in PBS/1% BSA containing 0.1 μg/mL DAPI (BioLegend), and analysed by flow cytometry on the FACSVerse (BD Biosciences). Data were processed and analysed with FlowJo V10 software (FlowJo, LLC) and plotted using GraphPad Prism 6 (GraphPad Software, Inc.). Binding of recombinant hCD47 fused to an Fc domain of human IgG1 was monitored in the presence of increasing amounts of the anti-hSIRPα antibodies. […] IC50 values represent the concentration at which half of the inhibition is observed.
(Flow cytometry measures light scatter and fluorescence of single cells or particles in a stream.)

The target in test [6] is T4, hSIRPα expressed on primary human cells (human, UniProt P78324 31-504).
T4 construct: whole, on cells; also called hSIRPα on primary human CD14+ monocytes; on primary human granulocytes
T4 sequence (P78324 31-504): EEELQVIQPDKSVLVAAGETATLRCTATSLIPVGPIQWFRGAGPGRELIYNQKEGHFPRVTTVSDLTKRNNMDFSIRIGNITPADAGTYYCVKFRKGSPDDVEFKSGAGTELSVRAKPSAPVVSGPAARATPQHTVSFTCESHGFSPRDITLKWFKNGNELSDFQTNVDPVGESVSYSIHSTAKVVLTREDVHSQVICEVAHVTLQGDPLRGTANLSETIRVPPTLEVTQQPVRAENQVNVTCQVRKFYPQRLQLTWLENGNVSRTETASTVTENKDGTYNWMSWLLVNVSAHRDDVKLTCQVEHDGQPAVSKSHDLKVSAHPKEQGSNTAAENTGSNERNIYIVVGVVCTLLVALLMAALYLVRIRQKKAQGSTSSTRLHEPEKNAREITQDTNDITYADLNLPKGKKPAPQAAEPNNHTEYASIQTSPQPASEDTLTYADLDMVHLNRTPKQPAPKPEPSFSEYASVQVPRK
The test can be described thus: flow cytometry, primary human granulocytes, donor 1. The protocol:
Next, cells were centrifuged at 300 g for 7 minutes. Supernatants containing lysed RBCs were removed by aspiration, and the remaining blood cells were gently resuspended in RBC lysis buffer and kept on ice for 1 minute. RBC lysis was neutralized by adding assay medium (IMDM (Gibco) supplemented with 10% Fetal Bovine Serum (Gibco) and Pen/Strep (Gibco)). Blood cells were centrifuged at 300 g for 6 minutes and supernatants were removed by aspiration to remove remaining RBCs as much as possible. Subsequently, erythrocyte-lysed blood cells were resuspended in assay medium containing 10 ng/mL IFNγ and cells were incubated for 1 hour at 37° C., 5% CO₂ and 95% humidity. […] The percentage of granulocytes present in the cell suspension was determined by flow cytometry on the FACSCanto II (BD Biosciences) based on high forward scatter (FSC) and side scatter (SSC). Binding of hSIRPα.50A to human granulocytes was assessed by incubating the cells for 30 minutes at 4° C. with hSIRPα.50A antibody (25 μg/mL and dilutions thereof) in PBS/1% BSA containing 10% autologous serum (PBS/1% BSA/10% serum). […] After this labeling procedure, cells were washed two times, resuspended in PBS/1% BSA/10% serum and analysed by flow cytometry on the FACSCanto II (BD Biosciences). Data were processed and analysed with FlowJo V10 software (FlowJo, LLC). […]

T1 sequence (Q9P1W8 29-387 limits assumed): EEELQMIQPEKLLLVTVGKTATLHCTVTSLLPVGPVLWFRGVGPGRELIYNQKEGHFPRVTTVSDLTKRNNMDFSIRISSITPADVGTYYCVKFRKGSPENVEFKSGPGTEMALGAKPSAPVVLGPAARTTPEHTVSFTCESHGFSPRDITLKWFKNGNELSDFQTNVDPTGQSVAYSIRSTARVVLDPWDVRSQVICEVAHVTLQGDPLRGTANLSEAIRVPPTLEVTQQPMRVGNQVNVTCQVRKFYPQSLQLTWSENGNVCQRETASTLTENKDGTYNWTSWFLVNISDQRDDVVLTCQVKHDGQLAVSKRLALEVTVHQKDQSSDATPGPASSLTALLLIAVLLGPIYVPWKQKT
T3 sequence (P78324 other isoform, or with tags, fused parts or gaps mutant limits assumed): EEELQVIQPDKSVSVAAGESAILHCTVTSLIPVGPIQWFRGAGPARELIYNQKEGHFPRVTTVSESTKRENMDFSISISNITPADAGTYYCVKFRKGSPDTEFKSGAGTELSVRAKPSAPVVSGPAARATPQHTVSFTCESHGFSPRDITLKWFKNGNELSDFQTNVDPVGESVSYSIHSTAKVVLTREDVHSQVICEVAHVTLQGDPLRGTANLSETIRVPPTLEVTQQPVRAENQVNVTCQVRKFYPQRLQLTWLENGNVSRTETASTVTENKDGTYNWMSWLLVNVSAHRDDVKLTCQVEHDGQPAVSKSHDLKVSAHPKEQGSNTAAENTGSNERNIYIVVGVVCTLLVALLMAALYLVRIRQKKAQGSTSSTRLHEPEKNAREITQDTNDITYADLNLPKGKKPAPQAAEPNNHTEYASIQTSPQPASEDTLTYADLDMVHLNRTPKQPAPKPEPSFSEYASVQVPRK

B1: KWAR23 (antibody, V domains shown)
VH: EVQLQQSGAELVKPGASVKLSCTASGFNIKDYYIHWVQQRTEQGLEWIGRIDPEDGETKYAPKFQDKATITADTSSNTAYLHLSSLTSEDTAVYYCARWGAYWGQGTLVTVSS
VL: QIVLTQSPAIMSASPGEKVTLTCSASSSVSSSYLYWYQQKPGSSPKLWIYSTSNLASGVPARFSGSGSGTSYSLTISSMEAEDAASYFCHQWSSYPRTFGAGTKLELK
Regarding B1, the EC50 in test [1] was 0.003 nM; in test [2], 0.081 nM; in test [3] it was 0.051 nM; in test [4] it was 0.04 nM. For the same molecule, the half-maximal inhibitory concentration (IC50) in test [5] came to 0.132 nM.

B2: hSIRPα.50A (antibody, V domains shown)
VH: QVQLQQSGPELVKPGASVRISCKASGFTFTNYYIHWVKQRPGQGLEWIGWIYPGNVNTKYNEKFKAKATLTADKSSTTAYMQLSSLASEDSAVYFCARPTIIATDFDVWGAGTTVTVSS
VL: DIVMTQSHKFMSTSVGDRVNITCKASQGVGTAVGWYQQKPGQSPRLLIYWASTRHTGVPDRFTGSGSGTDFSLAISNVQSEDLADYFCQQYSTYPFTFGGGTNLEIK
notes: light chain constant domain not tied; also called mouse hSIRPα.50A; hSIRPα.50A.mIgG1
Turning to B2, the EC50 stood at 4.3 nM in test [6], 1.36 nM in test [2], 1.3 nM in test [3] and 1.25 nM in test [4].

B3: hSIRPα.40A (antibody, mouse IgG1, kappa, V domains shown)
VH: EVQFQQSGTVLARPGTSVKMSCKASGSTFTSYWMHWVKQGPGQGLQWIGAIYPVNNDTTYNQKFKGKAELTVVTSTSTAYMEVSSLTNEDSAVYYCTRSFYYSLDAAWFVYWGQGTLVTVSA
VL: DIQMTQSPSSLSASLGERVSLTCRASQDIGSRLNWLQQEPDGTIKRLIYATSSLDSGVPKRFSGSRSGSDYSLTISGLESEDFVDYYCLQYASSPFTFGGGTKLEINR
notes: mouse antibody, full chains without signal peptide; also called mouse hSIRPα.40A
As for B3, the results for the 50% effective concentration (EC50) in test [1] and in test [6] were 0.369 nM and 1.23 nM, respectively. Besides, in test [5], the IC50 turned out to be 0.548 nM.

In general, EC50 refers to the concentration giving half of the maximal effect. High values mean a need for much substance, low ones an effect from little substance. For orientation: IC50 means the concentration at which inhibition is half-maximal. Low readings indicate higher potency, high ones lower potency.

(Values after patent US20180312587A1 (ADURO BIOTECH HOLDINGS EUROPE B V, published 2018).)
